Experimental data from the DeepSol protein solubility set.

Experiment: soluble on expression in E. coli; label from the status in PepcDB or PDB records

Sequence	soluble on expression in E. coli
MQFNPGFSSLAALLADPGRAQMIWALMDGSARPASELALLAGVSPSSASGHLGRLVEGGVLSLEARGRNRFYRLAGPEVGQAVEALASASLALQPQRRSLPPSHGTPSALREARTCYDHLAGELAVGVFARMLDAGWIEQEGRTLRLSATGEAGLAGLGIDLAEVRRRRRQFACACPDWSERKPHLGGALGAALLEACLRQGWLRPQDGSRALQVSSKGRAGLRGLAERTAG	not soluble
MNTGFANPSAKPDDPTDPRARRDHGGGLDGAMRRYGGQRADWIDLSTGINPLPYPVGTLLPEDWTALPDHGAFGELIRAARAFWHLPEAAAVLPAPGASALIARIPALADPARVRITQPTYNEHAAAFTAHGWQVVADGPAEARVIVHPNNPDGRIWSEAEAEGALCVIDESFGDVAPETSLAHLAARPGTVVLKSFGKFWGLAGLRLGFAVALPETIARLNDLTGPWAVSGPALRIGTRALSDTAWAEETRIRLAQEAARLDTLMSAGGVQVLGGTDLFRLYQVDDAAAWQDRLARARIWSRIFPYSDRFLRLGLPPAEGWDRLESAL	not soluble
DTPEPPLHNFYCSKLLDLVFLLDGSSMLSEAEFEVLKAFVVGMMERLHISQKRIRVAVVEYHDGSRAYLELKARKRPSELRRITSQIKYTGSQVASTSEVLKYTLFQIFGKIDRPEASHITLLLTASQEPPRMARNLVRYVQGLKKKKVIVIPVGIGPHASLKQIRLIEKQAPENKAFLLSGVDELEQRRDEIVSYLCDLAPEAPAPT	soluble
SHKLPSGPPMHHFNSRYSETGCVGMQIRDAHEENPESILDEHVQRVMKTPGCQSPGTGRHSPKSRSPDGH	soluble
MGSDKIHHHHHHMMNATPWLTVSRGTAPLLVSIPHTGIDLAGLEPRLVSPWLGRRDCDWWIDKLYDFANDLGATVVHTAISRTVIDVNRDPTGVSLYPGQTTTTLCPTDTFDGDPLYRMGEEPTPSEIDQRRETYFKPYHAALQAEIDRLRGMHEKIVLYDCHSIRSVLPRLFEGTLPVFNLGTNDGKSTDPVLQDKVAAILAATGETWVVNGRFKGGSITRGFGQPQNGVHALQMELSNRGYMREPSEKGSPENWPVPYDPTYAAPIRATLKTILETAIDWARR	not soluble
MILLSVHDSFLLDHNLPSACDKVFERLLDVTNSSFGFIATLQEDEDGQSLYLPAISNLAWDEETLTWYRHQRRTHGGLRLRKLDNLFGHVVTHNTVVCTNSLLRQKAGRDLPPIHPALHSLLGIPITHNGKTVGMIALANRREGYDQTMIELEHHHHHH	not soluble
SNEFFPVDDNNEGTDADMKEDSEGPEPKGLSPPHKKSKAKKPESSKDSSEDESGPEEKQTAEEMEGQSQEADGVNTTPVPSPASEDKAEVHKDEADSAKDDNTVKDSDMTNHSVCDQELPNGQENDSAKSEGKTEAESPSSSMETEDLSPNQEDAAIVEQPEVIPLIDDQEAQEGGEAQGKDAPAVFAESQGSSEAENTSGPDVDMNSQVDGVNEPTESLQEDLQ	not soluble
MHSGAYFFYAAPRAGTAGKQAMPIEGIDYRLVFASDVNPRDGLGLECWRGEQPLFEVFRDDVGRRFVVNLFASDVPLELLEAIIPTARRELGDFPRRSASRGVAKPG	soluble
MGSDKIHHHHHHMVEIINPFDGGGYSLAEMTQAINILPNLYTRLGQMGLFRFEGVTQRSVIIEQAEGVLNLLPTVPLGGPATVANRDARSMRSFTVPWIPHDDSITPQDVQGVRGFGVADAADPLATVMERKLTRMRTKHAQTREFMEINALRGIVRDGSGSTLYDYFAEFGLVRQQVDFALGTAATNVQAKIREVLRLVEVELKGETMTSVTALVSPAFFDKLISHPKVESAYQYFSSTGAQPLREDVRRRFPFAGMVFEEYNATVTLATGSNETLVPAGEGIAFPLGTTDTFVTYGAPANLIETVNTMGLPMYARQLARQDGSAIDVKTEASILPVNKRPRLAVRIFSGN	not soluble
MQTSPLLTQLMEALRCLPGVGPKSAQRMAFTLLQRDRSGGMRLAQALTRAMSEIGHCADCRTFTEQEVCNICSNPRRQENGQICVVESPADIYAIEQTGQFSGRYFVLMGHLSPLDGIGPDDIGLDRLEQRLAEEKITEVILATNPTVEGEATANYIAELCAQYDVEASRIAHGVPVGGELEMVDGTTLSHSLAGRHKIRF	soluble
MSLESIQSSLKHMTGNRSFEKQFTQLKEAVFRSPHVQLFLEEHPSLSPITLEQGLSKLYEYQKEQSHCAHCPGLQKCPNLMKGYQPTLYVERDSLELSYSPCPLKEEEEREKKKRSLIRSLYIPKEILEAKFDDVESEPGRSIASHRALEFALSAKPGEDGMGLYLYGKFGVGKTFLMGAIANELKDRGIDSTIVYVPDFFRELKQSIGDGTFQQKLDFVKNAQVLIFDDIGAETMTSWVRDDVLGVILQYRIMEKLPTLFTSNYDYDELEEHLAYNDKSGTELLKAKRVMERIRHYTVSVMVQGQNRREHQSEGHHHHHH	soluble
MSRCPEDSRTGNGRNGAPDPGELSAMVRKLEIRSRRLVNELFSGEYHSSFKGRGIEFSQVREYQYGDDVRTIDWNTSAHKNDLYVKIFTEERERILMLVLDGSGSMLFGSGRLKKELAAEVSAILAFSAVQNNDMVGLLVFSDTVETYIPPRKGRAHALVILNEIFSMRQCGRKTDIDAALSFLRRTQKRKSIIFLLTDLLGSEYERGMKLLNARHEFVLIHIGDPLDHELPHSGLLDLVDPETGERLTIDAGSRAFLARYAKEQRAKREAVQRQLSRMKVDAVFLDTGKSIIGGLNAFFRHRERKV	not soluble
MGSDKIHHHHHHMLDAQNVSVGYDEKTPIIQQLSFQVHKGEIFGILGPNGSGKTTLLKAVSGLLSPSEGTITLHGKAIADYHSKELAQKMAVLPQTADTAFAYKVKEVVALGRYPHQKGWLASESQEDERVIREAMEQTDTWKFRNKPLQTLSGGERQRALLARALCQEPDLLLLDEPTNHLDISHQMQLLDALKDWTRTRQLTVVAILHDLNMASLYCDRVLLLNEGRMVDLNSPRQVMTEHQLANVYETKIRRNEHPTIPRPLVTFEPAAIRSKPSSPISELEVFTSEQLIKVTSSIRWKTLSSAVLGAGFKWHQTFVNRHVSKDYYCDDVEREFQTFLSNVGVDGTDALGMMTAAILEDVAITEATYESFKVRVFVTAGISNAVDAAKAHLRKRNEATVGTINTWVFIEGTLPDAAYVQALMTATEAKGRALAEKEILDPVTGTLATGTSTDSVMIASSQTGTYFPYAGTITPLGQAIGKLVYDATIQAVTDNEKRRLER	not soluble
MGSDKIHHHHHHMIKWRDGKLGLPIKEAVELFPELKNFLDEKGRLDFSNREARILYNKAVAKVLFDLDIEYHPKGLVTPPISRYIFLKTFLRGGEKVLEIGTGHTALMSLIAEKVFKCDVTATELDNEFYSYAKLNIARNNSRIKLLKSSGGIIRGVVPRGERFDVIFSAPPYYEKHSGGVLTEREALGGGKFGEEFSIKLLNEALDYLNAGGKVALFLPHKRDLLNAIKMKGIRLGYEVRDILFKVGTRKRHSLILTV	not soluble
MFRILTINPGSTSTKLSIFEDERMVKMQNFSHSPDELGRFQKILDQLEFREKIARQFVEETGYSLSSFSAFVSRGGLLDPIPGGVYLVDGLMIKTLKSGKNGEHASNLGAIIAHRFSSETGVPAYVVDPVVVDEMEDVARVSGHPNYQRKSIFHALNQKTVAKEVARMMNKRYEEMNLVVAHMGGGISIAAHRKGRVIDVNNALDGDGPFTPERSGTLPLTQLVDLCFSGKFTYEEMKKRIVGNGGLVAYLGTSDAREVVRRIKQGDEWAKRVYRAMAYQIAKWIGKMAAVLKGEVDFIVLTGGLAHEKEFLVPWITKRVSFIAPVLVFPGSNEEKALALSALRVLRGEEKPKNYSEESRRWRERYDSYLDGILRHHHHHH	soluble
GPLGSMPGPAAGSRARVYAEVNSLRSREYWDYEAHVPSWGNQDDYQLVRKLGRGKYSEVFEAINITNNERVVVKILKPVKKKKIKREVKILENLRGGTNIIKLIDTVKDPVSKTPALVFEYINNTDFKQLYQILTDFDIRFYMYELLKALDYCHSKGIMHRDVKPHNVMIDHQQKKLRLIDWGLAEFYHPAQEYNVRVASRYFKGPELLVDYQMYDYSLDMWSLGCMLASMIFRREPFFHGQDNYDQLVRIAKVLGTEELYGYLKKYHIDLDPHFNDILGQHSRKRWENFIHSENRHLVSPEALDLLDKLLRYDHQQRLTAKEAMEHPYFYPVVKEQSQ	soluble
MSEKIRVLLYYKYVSIENAQEYAAKHLEFCKSIGLKGRILIADEGINGTVSGDYETTQKYMDWVHSDERFADLWFKIDEENQQAFRKMFVRYKKEIVHLGLEDNNFDSDINPLETTGEYLNPKQFKEALLDEDTVVLDTRNDYEYDLGHFRGAIRPDIRNFRELPQWVRDNKDKFMEKRVVVYCTGGVRCEKFSGWMVREGFKDVGQLHGGIATYGKDPEVQGELWDGAMYVFDDRISVPINHVNPTVISKDYFDGTPCERYVNCANPFCNKQIFASEENETKYVRGCSPECRAHERNRYVQENGLSRQEWAERLEAIGESLPEFVGALEHHHHHH	soluble
MQEIIFIDGGSLPTPEGFTREWVKAAAESRTEDQKLFSLVSDAFQRKIDAGVHVPTYPQFRDMIGQFLDIIRDEKNCYEPYVLKEENAKILELEIIDEVAKQYRERTGKTLEVRVCVAGPTDLYLQAFGATAFSDAYHIMALNIENFIKQAFKAAKNFKIKVIALDEPSLGMNDKIQFSDLDIVSALTLASTYARKQGADVEIHLHSPLKYKLICETPINVMGFEYAATPSYIDLMDKKILEDSNTYIRLGVSRTDISSLIGMVNETYGVNAWKEKEYMQKIVTELETPDIIQKRLEKACSILGDRIKYASPDCGLAFWPDQELAFRLLENTAKGINAFNAEMKDLLEHHHHHH	not soluble
MRVFPVTLGPLQENAYLVETGEGPVLIDPGDEPEKLLALFQTTGLIPLAILLTHAHFDHVGAVAPLVEALDLPVYLHPLDLPLYEGADLAARAWGLAIPKPPLPVRPLEEGMRLFGFQVLHLPGHSPGHVAFYDPEGAQVFSGDLLFRGSVGRYDLPGADPKALFASLKRLLSLPPETRVHPGHGPGTTLGLEARTNPFLTGLEWEA	soluble
MQEQIQEYAKRLKLSWIRENYREVEAANTEEYLLKLFEKEIEQREERKINLLFKAATLPNVSGKPFDWKDIQLGQGLSQQSLLDGEFIESKENMVFYGGVGAGKTYLSTLIGMNAIQKYGKRVKFYTIASLANELLEANDKGNLNKLFKKIEKLDLLILDELGYIPLHKHGAELLFQVISLCYEKRSIIITTNLQFGQWNHVFGDPILTEAVVDRLIHHSHLVIFGGDSNRMKKSFLLNNMLEHHHHHH	soluble
MGSSHHHHHHSSGRENLYFQGMTTAKRDTYTPETLLSVAVQVFIERGYDGTSMEHLSKAAGISKSSIYHHVTGKEELLRRAVSRALDELFGILDEEHARVGTAAERLEYVVRRMVEVLMAELPYVTLLLRVRGNTGTERWALERRREFDHRVAALLKDAAAEGDVRADVEVRLATRLVFGMINSIVEWYRPEGPDGRSDASGASGVSGAGEREVVDAVARLVFGGLRKAS	soluble
MSEDLNAGPKVNREFKNSVFTLLFNEVEAIRDIAGAVGAMLGKEINPDTPIKKTTLQNALLGGKLNDLSFVLDDKLIVLIEHQSTINKNMPLRMLHYISEIYNRLYDKKDLYKREKISIPKPVFIVLYNGEEDIKDFEEYLLSDLFKDFDISKEPPCLELRVQVRNINKGHSAEIVKQSPLLRDYVAFVEEVREANREEGASPELAMEKAVENCIKKGILTIFLTRHKEEVIKMLVAEWDYELDLEVAKEEAHEKGLSQGRDEERRKNIKDLYRIGVGIETIAKAFDLSERQVKDILGL	not soluble
MSLMTKENNKSAAETEEWKKEYALRDELLKQEKENKKFEKELYQKQNKVRQAENKLKKEKSEYYNVLEDTEKYRMYIGEVGVQGEGVEVTLEDASYIPEGENVNSYIVHESHIFQVVNELYISGAALVAVNGQRLTHDSYIKCNGPVVTVDGVQHPAPFTVSAIGDPDVLLPSLNIAGGLIDQLSMDHISVSAEKEKNVQMKPILKTKEEGHHHHHH	soluble
